# Assay results taken from publication PMC5036196, “Structural and histone binding ability characterization of the ARB2 domain of a histone deacetylase Hda1 from Saccharomyces cerevisiae” (Scientific Reports, 2016).
# Residue numbers refer to the chain shown, from its start.
# B1: ARB2 domain of Hda1 (Hda1^457–698) (domain or fragment, Saccharomyces cerevisiae, UniProt P53973 457-698, looked up)
# chain: LQKAIRQQQQHYLSDEFNFVTLPLVSMDLPDNTVLCTPNISESNTIIIVVHDTSDIWAKRNVISGTIDLSSSVIIDNSLDFIKWGLDRKYGIIDVNIPLTLFEPDNYSGMITSQEVLIYLWDNYIKYFPSVAKIAFIGIGDSYSGIVHLLGHRDTRAVTKTVINFLGDKQLKPLVPLVDETLSEWYFKNSLIFSNNSHQCWKENESRKPRKKFGRVLRCDTDGLNNIIEERFEEATDFILDS
# notes: Hda1 (histone deacetylase), S. cerevisiae, C-terminal ARB2 domain, residues 457-698; Homodimer in the crystal (symmetry-related molecules) and by size-exclusion chromatography; A selenomethionine derivative was used for phasing only; also called Native-Hda1^457–698; wild-type ARB2 domain; source: E. coli BL21 (DE3), purified (Ni-NTA, HiTrap Q FF, Superdex 200)
# B2: ARB2-M3 (residues Val481, Ser482, Met483 and Asp484 mutated to Ala) (domain or fragment, Saccharomyces cerevisiae, UniProt P53973 457-698, looked up)
# chain: B1 chain with V25A, S26A, M27A, D28A
# notes: Hda1, S. cerevisiae, ARB2 domain, residues 457-698, with four substitutions around the groove; source: E. coli BL21 (DE3), purified (Ni-NTA, HiTrap Q FF, Superdex 200)
# B3: ARB2-M2 (residues Tyr468 and Glu472 mutated to Ala) (domain or fragment, Saccharomyces cerevisiae, UniProt P53973 457-698, looked up)
# chain: B1 chain with Y12A, E16A
# notes: Hda1, S. cerevisiae, ARB2 domain, residues 457-698, with two substitutions around the groove; source: E. coli BL21 (DE3), purified (Ni-NTA, HiTrap Q FF, Superdex 200)
# B4: ARB2-M1 (residues Gln463, His467 and Asp471 mutated to Ala) (domain or fragment, Saccharomyces cerevisiae, UniProt P53973 457-698, looked up)
# chain: B1 chain with Q7A, H11A, D15A
# notes: Hda1, S. cerevisiae, ARB2 domain, residues 457-698, with three substitutions around the groove; source: E. coli BL21 (DE3), purified (Ni-NTA, HiTrap Q FF, Superdex 200)
# Target: yeast histone H3-H4 tetramer (Saccharomyces cerevisiae, UniProt P61830 1-136; P02309 1-103)
# Assay: ITC; ITC200 at 20 °C; 0.5 mM ARB2 or mutant in the injector, 0.2 mM H2A/B or 0.25 mM H3/4 in the sample cell; 25 mM Tris-HCl pH 7.5, 200 mM NaCl; single-site fitting model
# Settings: both partners purified
Binder,Kd [µM],dH [kcal/mol],stoichiometry N
B1,3.24 ± 0.49,-33.9,1.52
B2,8.19 ± 0.72,-20.2,0.9
B3,6.93 ± 1.24,-24.1,1.1
B4,9.84 ± 1.48,-7.63,0.78

# Target: the molecule itself
# Assay: SEC; Superdex 200 10/300 GL, 0.5 ml/min, 25 mM Tris-HCl pH 7.5, 200 mM NaCl; apparent molecular mass against standard proteins
# Settings: not given
row,Binder,stoichiometry N
1,B1,2
